Results taken from patent publication US20110189154.

Legend:
[1] = biological target: 6His-Prx2 (human peroxyredoxin Prx2), superoxidized in the cysteine sulfinic acid form (UniProt P32119)
[2] = biological target: 6His-Prx1 (human peroxyredoxin Prx1), superoxidized in the cysteine sulfinic acid form (UniProt Q06830)
[3] = biological target: T1, Tsa1 (S. cerevisiae 2-Cys peroxyredoxin) (UniProt P34760)
T1 sequence: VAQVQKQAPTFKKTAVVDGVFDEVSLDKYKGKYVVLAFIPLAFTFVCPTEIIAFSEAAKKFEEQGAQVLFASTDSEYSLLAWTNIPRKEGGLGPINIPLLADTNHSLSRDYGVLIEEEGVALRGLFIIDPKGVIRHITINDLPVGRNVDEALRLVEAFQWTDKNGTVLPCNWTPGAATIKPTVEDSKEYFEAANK

Sequence of hSrx1 (human sulfiredoxin) (chain, as listed by the source): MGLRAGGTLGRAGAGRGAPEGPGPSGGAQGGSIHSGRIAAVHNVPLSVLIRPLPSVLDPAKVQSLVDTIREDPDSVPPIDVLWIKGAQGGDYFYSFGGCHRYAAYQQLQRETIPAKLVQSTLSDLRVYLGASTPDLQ
Sequence of 6His-Prx1 (human peroxyredoxin Prx1), superoxidized in the cysteine sulfinic acid form (Q06830 whole entry): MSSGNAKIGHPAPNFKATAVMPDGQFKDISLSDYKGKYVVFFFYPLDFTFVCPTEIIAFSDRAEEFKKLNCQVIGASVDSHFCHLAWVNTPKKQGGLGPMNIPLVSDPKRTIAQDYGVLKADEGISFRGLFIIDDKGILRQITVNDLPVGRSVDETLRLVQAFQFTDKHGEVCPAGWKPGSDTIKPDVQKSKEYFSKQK
Sequence of 6His-Prx2 (human peroxyredoxin Prx2), superoxidized in the cysteine sulfinic acid form (P32119 whole entry): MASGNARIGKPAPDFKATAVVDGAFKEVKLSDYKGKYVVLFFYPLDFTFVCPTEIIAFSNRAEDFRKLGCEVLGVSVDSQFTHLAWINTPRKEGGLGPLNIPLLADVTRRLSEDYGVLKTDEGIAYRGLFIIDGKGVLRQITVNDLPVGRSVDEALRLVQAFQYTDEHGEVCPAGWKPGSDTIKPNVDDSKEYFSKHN

Substance	reduction of superoxidized 6His-Prx2 in vitro [1]	reduction of superoxidized 6His-Prx1 in vitro [2]	reduction of the Cys-SO2H form of Tsa1 [3]
hSrx1 (human sulfiredoxin)	shows the ability of hSrx1, expressed from Baculovirus in High Five cells, to reduce the human peroxyredoxins 6His-Prx1 and 6His-Prx2 superoxidized in the cysteine sulfinic acid form	shows the ability of hSrx1, expressed from Baculovirus in High Five cells, to reduce the human peroxyredoxins 6His-Prx1 and 6His-Prx2 superoxidized in the cysteine sulfinic acid form	–
HA-tagged Srx1^C84S (S. cerevisiae Srx1 with Cys84 changed to serine)	–	–	completely eliminates the formation of the disulfide bridge between Srx1 and Tsa1 and the reduction of the Cys-SO2H form of Tsa1
